Patent publication US20200392225A1 (Novartis, published 2020)
Positions count from the first letter of the chain named.

Columns and labels:
[1] = target: T1, human NPR1 expressed on CHO-K1 cells (human, UniProt P16066 33-1061); assay: cell-based or functional assay
T1 sequence: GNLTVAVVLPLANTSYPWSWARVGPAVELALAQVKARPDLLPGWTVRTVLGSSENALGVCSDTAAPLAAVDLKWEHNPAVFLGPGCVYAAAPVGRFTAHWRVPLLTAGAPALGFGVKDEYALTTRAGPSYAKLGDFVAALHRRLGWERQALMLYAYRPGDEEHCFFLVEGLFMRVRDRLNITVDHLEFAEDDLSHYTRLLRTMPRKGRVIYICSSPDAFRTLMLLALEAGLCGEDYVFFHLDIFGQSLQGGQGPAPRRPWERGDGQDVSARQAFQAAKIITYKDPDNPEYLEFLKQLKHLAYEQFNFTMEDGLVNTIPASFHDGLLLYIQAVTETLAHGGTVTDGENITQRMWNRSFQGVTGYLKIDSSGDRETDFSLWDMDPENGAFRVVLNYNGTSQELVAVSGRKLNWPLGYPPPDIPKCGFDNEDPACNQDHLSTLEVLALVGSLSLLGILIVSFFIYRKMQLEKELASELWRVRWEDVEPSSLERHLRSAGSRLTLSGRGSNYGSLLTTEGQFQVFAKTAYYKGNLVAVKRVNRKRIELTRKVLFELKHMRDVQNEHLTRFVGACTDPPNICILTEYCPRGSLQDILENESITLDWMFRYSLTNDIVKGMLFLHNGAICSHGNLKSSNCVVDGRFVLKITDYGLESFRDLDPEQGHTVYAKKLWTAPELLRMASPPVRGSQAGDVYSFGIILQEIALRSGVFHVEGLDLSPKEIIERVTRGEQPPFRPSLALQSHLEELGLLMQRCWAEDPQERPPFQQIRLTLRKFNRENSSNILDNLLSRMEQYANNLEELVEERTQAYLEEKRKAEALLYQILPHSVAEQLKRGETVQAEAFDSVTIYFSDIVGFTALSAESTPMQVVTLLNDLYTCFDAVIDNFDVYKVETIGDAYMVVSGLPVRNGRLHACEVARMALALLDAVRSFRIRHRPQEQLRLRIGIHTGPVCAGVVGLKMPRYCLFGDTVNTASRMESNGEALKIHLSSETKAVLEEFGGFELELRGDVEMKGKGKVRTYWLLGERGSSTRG

[2] = target: T1, human NPR1 expressed on CHO-K1 cells; assay: flow cytometry, 1 uM IgG
[3] = target: T2, human NPR1 expressed on CHO-K1 cells in the presence of ANP (human, UniProt P01160 124-151); assay: flow cytometry, 1 uM IgG, +100 nM ANP
T2 construct: also called hNPR1 CHO K1 + 100 nM ANP
T2 sequence: T1 sequence
T2 sequence (peptide): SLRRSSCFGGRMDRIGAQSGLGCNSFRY

[4] = target: T1, human NPR1 expressed on CHO-K1 cells; assay: cell-based or functional assay; remark: listed apart in the source
rat NPR1-ANP complex [5] = target: T3, rat NPR1-ANP complex (rat); assay: ELISA, 1 uM IgG, +100 nM ANP
T3 construct: Rat receptor antigen measured in the presence of ANP; also called rNPR1 + ANP; rNPR1-ANP-complex
T3 sequence (P18910 29-469, one chain of several): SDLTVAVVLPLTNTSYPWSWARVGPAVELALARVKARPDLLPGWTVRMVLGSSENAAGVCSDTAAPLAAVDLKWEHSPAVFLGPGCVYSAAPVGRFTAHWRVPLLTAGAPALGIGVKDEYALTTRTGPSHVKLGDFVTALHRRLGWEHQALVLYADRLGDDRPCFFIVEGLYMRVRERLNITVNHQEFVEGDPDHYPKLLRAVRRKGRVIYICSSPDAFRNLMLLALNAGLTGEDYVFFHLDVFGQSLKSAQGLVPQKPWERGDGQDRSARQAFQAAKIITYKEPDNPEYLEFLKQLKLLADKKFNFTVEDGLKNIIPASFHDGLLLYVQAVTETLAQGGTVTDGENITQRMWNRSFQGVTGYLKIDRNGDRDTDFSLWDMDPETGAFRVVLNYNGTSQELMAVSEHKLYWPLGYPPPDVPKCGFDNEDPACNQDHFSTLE

human NPR1-ANP complex [6] = target: T4, human NPR1-ANP complex (human, UniProt P01160 124-151, limits assumed); assay: ELISA, 1 uM IgG, +100 nM ANP
T4 construct: Receptor antigen measured in the presence of ANP; also called hNPR1 + ANP; hNPR1-ANP-complex
T4 sequence: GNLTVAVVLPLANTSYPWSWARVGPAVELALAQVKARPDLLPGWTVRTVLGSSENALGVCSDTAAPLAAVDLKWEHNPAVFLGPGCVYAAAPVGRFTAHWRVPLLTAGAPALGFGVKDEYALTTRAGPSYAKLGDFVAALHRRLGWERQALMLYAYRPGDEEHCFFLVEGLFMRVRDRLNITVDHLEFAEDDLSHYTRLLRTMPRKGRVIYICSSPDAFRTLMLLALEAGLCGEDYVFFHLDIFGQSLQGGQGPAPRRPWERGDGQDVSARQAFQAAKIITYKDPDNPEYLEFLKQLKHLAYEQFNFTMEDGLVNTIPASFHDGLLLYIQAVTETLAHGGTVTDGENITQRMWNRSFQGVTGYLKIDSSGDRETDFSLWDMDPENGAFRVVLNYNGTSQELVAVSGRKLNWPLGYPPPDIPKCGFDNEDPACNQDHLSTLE
T4 sequence (peptide): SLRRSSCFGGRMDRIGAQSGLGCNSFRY

[7] = target: T5, human NPR1 (Natriuretic Peptide Receptor 1), recombinant antigen (human, UniProt P16066 33-473); assay: ELISA, 1 uM IgG
T5 construct: also called hNPR1; NPR1-hFc
T5 sequence: T4 sequence

[8] = target: T1, human NPR1 expressed on CHO-K1 cells; assay: cell-based or functional assay; remark: listed apart in the source
rat NPR1-ANP complex [9] = target: T3, rat NPR1-ANP complex; assay: ELISA, IgG titrated on the antigen with 250 fold molar excess of ANP
human NPR1-ANP complex [10] = target: T4, human NPR1-ANP complex; assay: ELISA, IgG titrated on the antigen with 250 fold molar excess of ANP [cont.]

B1: YY01 FabCys (Fab, V domains shown)
VH: EVQLVESGGGLVQPGGSLRLSCAASGFTFSSYWISWVRQAPGKGLEWVANIKQSGSETYYVESVKGRFTISRDNAKNSLYLQMNSLRAEDTAVYYCARSLRRRSTEHAGFDVWGQGTLVTVSS
VL: DIQMTQSPSSLSASVGDRVTITCRASQGISNYLAWYQQKPGKVPKLLIYAASTLQSGVPSRFSGSGSGTDFTLTISSLQPEDVATYYCQQADKFPYTFGQGTKVEIK
[1]
  cGMP conc [nM] at 1 uM FabCys, +0.075 nM ANP: 46 nM
  cGMP conc [nM] at 1 uM FabCys, without ANP: 15 nM

B2: YY01 IgG (YY01_LALA) (antibody, V domains shown)
VH: B1 VH
VL: DIQMTQSPSSLSASVGDRVTITCRASQGISNYLAWYQQKPGKVPKLLIYAASTLQSGVPSRFSGSGSGTDFTLTISSLQPEDVATYYCQQADKFPYTFGQGTKVEIKR
[2]
  flow cytometry S/BG: 35 S/BG
[3]
  flow cytometry S/BG: 21 S/BG
[4]
  cGMP conc [nM] at 1 uM IgG, +0.075 nM ANP: 14 nM
  cGMP conc [nM] at 1 uM IgG, without ANP: 5 nM
Rat NPR1-ANP complex [5]
  ELISA IgG binding at 1 uM IgG (unit not given): 50
Human NPR1-ANP complex [6]
  ELISA IgG binding at 1 uM IgG (unit not given): 76
[7]
  ELISA IgG binding at 1 uM IgG (unit not given): 54

B3: YY04 FabCys (Fab, V domains shown)
VH: EVQLVESGGGLVKPGGSLRLSCAASGFTFSNYWISWVRQAPGKGLEWVGRIKSKTYGGTTDYAEPVKGRFTISRDDSKNTLYLQMNSLKTEDTAVYYCAREKYSIRARGHGDYGFDVWGQGTLVTVSS
VL: B1 VL with A91G, D92Y, K93H, F94A, Y96F
[1]
  cGMP conc [nM] at 1 uM FabCys, +0.075 nM ANP: 67 nM
  cGMP conc [nM] at 1 uM FabCys, without ANP: 18 nM

B4: WW03 FabCys (Fab, V domains shown)
VH: QVQLLESGGGLVQPGGSLRLSCAASGFTFSSYWMNWVRQAPGKGLEWVSAISSDGSYTYYADSVKGRFTISRDNSKNTLYLQMNSLRAEDTAVYYCARDRYSMIYSYGAGAFDYWGQGTLVTVSS
VL: B1 VL with N31S, V43A, A50T, V83F, Q89M, A91S, D92Y, K93E, F94K, Y96R
[8]
  cGMP conc [nM] at 2 uM FabCys, +0.075 nM ANP: 108 nM
  cGMP conc [nM] at 2 uM FabCys, without ANP: 32 nM

B5: YY06 FabCys (Fab, V domains shown)
VH: EVQLLESGGGLVQPGGSLRLSCAASGFTFSSYAISWVRQAPGKGLEWVSAISGSGGSTYYAESVKGRFTISRDNSKNTLYLQMNSLRAEDTAVYYCARPYLGDRRSYGFDHWGQGTLVTVSS
VL: QSALTQPASVSGSPGQSITISCTGTSSDVGSYNLVSWYQQHPGKAPKLMIYEGSKRPSGVSNRFSGSKSGNTASLTISGLQAEDEADYYCSSYGFHIVVVVFGGGTKLTVL
[1]
  cGMP conc [nM] at 1 uM FabCys, +0.075 nM ANP: 75 nM
  cGMP conc [nM] at 1 uM FabCys, without ANP: 20 nM

B6: WW06 FabCys (Fab, V domains shown)
VH: QVQLVQSGAEVKKPGESLKISCKGSGYSFTSYWIAWVRQMPGKGLEWMGRIDPDNSYTRYSPSFQGQVTISADKSISTAYLQWSSLKASDTAMYYCARWLSPGYALGEQPAGMDHWGQGTLVTVSS
VL: DIVLTQPPSVSGAPGQRVTISCTGSSSNIGAGYAVHWYQQLPGTAPKLLIYSNNKRPSGVPDRFSGSKSGTSASLAITGLQAEDEADYYCQSYDLQKSSRVFGGGTKLTVL
[8]
  cGMP conc [nM] at 2 uM FabCys, +0.075 nM ANP: 251 nM
  cGMP conc [nM] at 2 uM FabCys, without ANP: 281 nM

B7: XX04 IgG (antibody, V domains shown)
VH: B4 VH
VL: B2 VL with N31S, V43A, A50T, V83F, A91E, D92W, K93V, F94K, Y96R
notes: also called XX04_LALA
Rat NPR1-ANP complex [9]
  EC50 (read off the curve): ~0.2 nM

B8: YY04 IgG (YY04_LALA) (antibody, V domains shown)
VH: B3 VH
VL: B2 VL with A91G, D92Y, K93H, F94A, Y96F
Human NPR1-ANP complex [10]
  EC50 (read off the curve): ~0.3 nM
[3]
  flow cytometry S/BG: 33 S/BG
Rat NPR1-ANP complex [5]
  ELISA IgG binding at 1 uM IgG (unit not given): 54
Human NPR1-ANP complex [6]
  ELISA IgG binding at 1 uM IgG (unit not given): 60

B9: XX03 IgG (antibody, V domains shown)
VH: B4 VH with Q1E, A50V, S52E, D54K, S56N, T58I, Y59F
VL: B2 VL with N31S, V43A, A50T, V83F, Q89M, A91S, D92Y, K93E, F94K, Y96R
notes: also called XX03_LALA
Rat NPR1-ANP complex [9]
  EC50 (read off the curve): ~0.2 nM

B10: YY07 FabCys (Fab, V domains shown)
VH: EVQLVQSGAEVKKPGESLKISCKGSGYSFTSYWISWVRQMPGKGLEWMGIIYPGTSYTRYSPSFQGQVTISADKSISTAYLQWSSLKASDTAMYYCARGSLPGLLGFDHWGQGTLVTVSS
VL: QSVLTQPPSVSGAPGQRVTISCTGSSSNIGAGYDVHWYQQLPGTAPKLLIYGNSNRPNGVPDRFSGSKSGTSASLAITGLQAEDEADYYCQSYDSPTSSSVFGGGTKLTVL
[1]
  cGMP conc [nM] at 1 uM FabCys, +0.075 nM ANP: 88 nM
  cGMP conc [nM] at 1 uM FabCys, without ANP: 77 nM

B11: YY05 FabCys (Fab, V domains shown)
VH: B10 VH with S100A, L101V, P102A, L104Q
VL: B10 VL with N58S, D94Y, S95T, P96S, T97S, S98H, S99G, S100P
[1]
  cGMP conc [nM] at 1 uM FabCys, +0.075 nM ANP: 227 nM
  cGMP conc [nM] at 1 uM FabCys, without ANP: 207 nM

B12: WW01 FabCys (Fab, V domains shown)
VH: QVQLLESGGGLVQPGGSLRLSCAASGFTFNTHYIHWVRQAPGKGLEWVSSISGSGSNTYYADSVKGRFTISRDNSKNTLYLQMNSLRAEDTAVYYCARERGYVYYHMFDPWGQGTLVTVSS
VL: DIVLTQSPATLSLSPGERATLSCRASQSITRNYLAWYQQKPGQAPRLLIYGASSRATGIPARFSGSGSGTDFTLTISSLEPEDFAVYYCQQHSMYPRTFGQGTKVEIK
[8]
  cGMP conc [nM] at 2 uM FabCys, +0.075 nM ANP: 121 nM
  cGMP conc [nM] at 2 uM FabCys, without ANP: 30 nM
